Changes are numbered by the printed parent chain. In names and notes the source's numbering stands.
Assays:
human TIGIT = target: T1, human TIGIT (human); assay: flow cytometry, transfected HEK293 cells
T1 chain: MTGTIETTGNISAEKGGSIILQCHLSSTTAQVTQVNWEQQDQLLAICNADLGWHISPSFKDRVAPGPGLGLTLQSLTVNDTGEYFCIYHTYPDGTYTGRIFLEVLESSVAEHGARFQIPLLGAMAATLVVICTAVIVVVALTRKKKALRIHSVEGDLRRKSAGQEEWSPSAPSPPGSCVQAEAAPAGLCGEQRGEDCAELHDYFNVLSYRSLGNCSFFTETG

TIGIT = target: T2, TIGIT (human); assay: cell-based or functional assay
T2 chain: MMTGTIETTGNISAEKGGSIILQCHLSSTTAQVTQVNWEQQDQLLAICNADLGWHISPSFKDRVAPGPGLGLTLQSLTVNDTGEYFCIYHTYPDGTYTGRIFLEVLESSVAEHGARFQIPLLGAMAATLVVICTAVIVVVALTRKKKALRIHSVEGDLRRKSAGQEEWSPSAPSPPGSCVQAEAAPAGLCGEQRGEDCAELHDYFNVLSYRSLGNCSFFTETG

PD-1 = PD-1 (human); assay: cell-based or functional assay
Chain of PD-1 (human) (chain, as listed by the source): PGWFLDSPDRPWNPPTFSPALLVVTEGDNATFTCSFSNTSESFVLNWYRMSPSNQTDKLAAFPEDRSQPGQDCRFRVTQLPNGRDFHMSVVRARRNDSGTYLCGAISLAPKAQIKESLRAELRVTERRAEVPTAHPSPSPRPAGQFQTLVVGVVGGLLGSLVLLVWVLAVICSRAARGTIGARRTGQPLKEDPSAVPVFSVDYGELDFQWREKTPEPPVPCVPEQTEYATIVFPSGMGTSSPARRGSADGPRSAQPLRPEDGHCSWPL

B1: variant CD155 IgV-Fc V9L, V11M, P18S, N35S, S54G, Q62K, L79P, L104M, T107M, V115M (Fc fusion)
chain: WPPPGTGDLVMQAPTQVSGFLGDSVTLPCYLQVPSMEVTHVSQLTWARHGESGGMAVFHQTKGPSYSESKRLEFVAARPGAELRNASLRMFGLRVEDEGNYTCMFVMFPQGSRSMDIWLRVLGSGGGGSEPKSSDKTHTCPPCPAPEAEGAPSVFLFPPKPKDTLMISRTPEVTCVVVDVSHEDPEVKFNWYVDGVEVHNAKTKPREEQYNSTYRVVSVLTVLHQDWLNGKEYKCKVSNKALPAPIEKTISKAKGQPREPQVYTLPPSRDELTKNQVSLTCLVKGFYPSDIAVEWESNGQPENNYKTTPPVLDSDGSFFLYSKLTVDKSRWQQGNVFSCSVMHEALHNHYTQKSLSLSPGK
MFI at 25 nM (human TIGIT): 3000

B2: variant CD155 IgV-Fc V9L, P18L, L79P, M90I, F91S, T102S, L104M, G111R (Fc fusion)
chain: WPPPGTGDLVVQAPTQVLGFLGDSVTLPCYLQVPNMEVTHVSQLTWARHGESGSMAVFHQTQGPSYSESKRLEFVAARPGAELRNASLRISGLRVEDEGNYSCMFVTFPQRSRSVDIWLRVLGSGGGGSEPKSSDKTHTCPPCPAPEAEGAPSVFLFPPKPKDTLMISRTPEVTCVVVDVSHEDPEVKFNWYVDGVEVHNAKTKPREEQYNSTYRVVSVLTVLHQDWLNGKEYKCKVSNKALPAPIEKTISKAKGQPREPQVYTLPPSRDELTKNQVSLTCLVKGFYPSDIAVEWESNGQPENNYKTTPPVLDSDGSFFLYSKLTVDKSRWQQGNVFSCSVMHEALHNHYTQKSLSLSPGK
IL-2 luciferase reporter, Normalized Fold Change from CD155-ECD, proteins at 50 nM (TIGIT): 2.4 fold

B3: variant CD155 IgV-Fc P18C, T26M, L44V, M55I, Q62K, L79P, F91S, L104M, T107M (Fc fusion)
chain: B1 chain with L9V, M11V, S18C, T26M, S35N, L44V, G54S, M55I, F91S, M115V
IL-2 luciferase reporter, Normalized Fold Change from CD155-ECD, proteins at 50 nM (TIGIT): 1.6 fold

B4: variant CD155 IgV-Fc V9I, P18T, D23G, L79P, F91S, G111R (Fc fusion)
chain: B2 chain with L9I, L18T, D23G, I90M, S102T, M104L
IL-2 luciferase reporter, Normalized Fold Change from CD155-ECD, proteins at 50 nM (TIGIT): 2 fold

B5: variant CD155 IgV-Fc P18T, M36T, S65A, S67E, L79Q, A81T, F91S, G111R (Fc fusion)
chain: B2 chain with L9V, L18T, M36T, S65A, S67E, P79Q, A81T, I90M, S102T, M104L
IL-2 luciferase reporter, Normalized Fold Change from CD155-ECD, proteins at 50 nM (TIGIT): -0.9 fold

B6: variant CD155 IgV-Fc V9L, P18T, Q62R, L79P, F91S, L104M, G111R (Fc fusion)
chain: B2 chain with L18T, Q62R, I90M, S102T
IL-2 luciferase reporter, Normalized Fold Change from CD155-ECD, proteins at 50 nM (TIGIT): 7.4 fold

B7: Full length ECD of PD-L2 (ligand)
chain: LFTVTVPKELYIIEHGSNVTLECNFDTGSHVNLGAITASLQKVENDTSPHRERATLLEEQLPLGKASFHIPQVQVRDEGQYQCIIIYGVAWDYKYLTLKVKASYRKINTHILKVPETDEVELTCQATGYPLAEVSWPNVSVPANTSHSRTPEGLYQVTSVLRLKPPPGRNFSCVFWNTHVRELTLASIDLQSQMEPRTHPT
IFN gamma levels pg/ml (MLR) (PD-1): 1170 pg/mL
